Results reported in publication PMC8812904.

How the values were obtained:
[1] = immunoblot of TuMV CP, N. benthamiana; conditions: glycan lost; control: AtVSR4-myc co-expression
[2] = confocal counting of punctate bodies, 2 dpai; conditions: glycan lost; control: AtVSR4-myc co-expression
[3] = immunoblot with TBSV P19 co-expression, 2 dpai; conditions: glycan lost; control: AtVSR4 wild type with P19
[4] = qRT-PCR of TuMV (+) and (-) RNA, N. benthamiana; conditions: glycan lost; control: AtVSR4-myc co-expression
[5] = GFP fluorescence under UV, N. benthamiana, 3 dpai; conditions: glycan lost; control: AtVSR4-myc co-expression
[6] = symptom observation, 16 dpi; conditions: glycan lost; control: AtVSR4oe transgenic Arabidopsis
[7] = qRT-PCR of TuMV RNA, transgenic Arabidopsis, 16 dpi; conditions: glycan lost; control: AtVSR4oe transgenic Arabidopsis
[8] = anti-myc immunoblot, N. benthamiana, 2 dpai; conditions: glycan lost; control: AtVSR4-myc wild type

B1: AtVSR4 (vacuolar sorting receptor 4): AtVSR4TM (protein)
parent chain: MKQLLCYLPWLLLLSLVVSPFNEARFVVEKNSLSVTSPESIKGTHDSAIGNFGIPQYGGSMAGTVVYPKENQKSCKEFSDFSISFKSQPGALPTFLLVDRGDCFFALKVWNAQKAGASAVLVADNVDEPLITMDTPEEDVSSAKYIENITIPSALVTKGFGEKLKKAISGGDMVNLNLDWREAVPHPDDRVEYELWTNSNDECGVKCDMLMEFVKDFKGAAQILEKGGFTQFRPHYITWYCPHAFTLSRQCKSQCINKGRYCAPDPEQDFSSGYDGKDVVVENLRQLCVYKVANETGKPWVWWDYVTDFQIRCPMKEKKYNKDCAESVIKSLGIDSRKIDKCMGDPDADLDNPVLKEEQDAQVGKGTRGDVTILPTLVVNNRQYRGKLEKSAVLKALCSGFEESTEPAICLSTDMETNECLDNNGGCWQDKSANITACKDTFRGKVCVCPIVDGVRFKGDGYSHCEPSGPGRCTINNGGCWHEERDGHAFSACVDKDSVKCECPPGFKGDGVKKCEDINECKEKKACQCPECSCKNTWGSYECSCSGDLLYMRDHDTCISKTGSQVKSAWAAVWLIMLSLGLAAAGAYLVYKYRLRQYMDSEIRAIMAQYMPLDSQPEVPNHTNDERA
other: viral replication, fold_change [1]: increases | other: formation of 6K2 punctate bodies [2]: increases | expression_or_secretion [3]: decreases | other: viral replication, fold_change [4]: increases | other: viral replication [5]: increases

B2: AtVSR4 (vacuolar sorting receptor 4): AtVSR4TMoe (protein)
parent chain: MKQLLCYLPWLLLLSLVVSPFNEARFVVEKNSLSVTSPESIKGTHDSAIGNFGIPQYGGSMAGTVVYPKENQKSCKEFSDFSISFKSQPGALPTFLLVDRGDCFFALKVWNAQKAGASAVLVADNVDEPLITMDTPEEDVSSAKYIENITIPSALVTKGFGEKLKKAISGGDMVNLNLDWREAVPHPDDRVEYELWTNSNDECGVKCDMLMEFVKDFKGAAQILEKGGFTQFRPHYITWYCPHAFTLSRQCKSQCINKGRYCAPDPEQDFSSGYDGKDVVVENLRQLCVYKVANETGKPWVWWDYVTDFQIRCPMKEKKYNKDCAESVIKSLGIDSRKIDKCMGDPDADLDNPVLKEEQDAQVGKGTRGDVTILPTLVVNNRQYRGKLEKSAVLKALCSGFEESTEPAICLSTDMETNECLDNNGGCWQDKSANITACKDTFRGKVCVCPIVDGVRFKGDGYSHCEPSGPGRCTINNGGCWHEERDGHAFSACVDKDSVKCECPPGFKGDGVKKCEDINECKEKKACQCPECSCKNTWGSYECSCSGDLLYMRDHDTCISKTGSQVKSAWAAVWLIMLSLGLAAAGAYLVYKYRLRQYMDSEIRAIMAQYMPLDSQPEVPNHTNDERA
other: viral symptom severity in plants [6]: increases | other: viral replication [7]: increases

B3: AtVSR4 (vacuolar sorting receptor 4): AtVSR4TM-myc (protein)
parent chain: MKQLLCYLPWLLLLSLVVSPFNEARFVVEKNSLSVTSPESIKGTHDSAIGNFGIPQYGGSMAGTVVYPKENQKSCKEFSDFSISFKSQPGALPTFLLVDRGDCFFALKVWNAQKAGASAVLVADNVDEPLITMDTPEEDVSSAKYIENITIPSALVTKGFGEKLKKAISGGDMVNLNLDWREAVPHPDDRVEYELWTNSNDECGVKCDMLMEFVKDFKGAAQILEKGGFTQFRPHYITWYCPHAFTLSRQCKSQCINKGRYCAPDPEQDFSSGYDGKDVVVENLRQLCVYKVANETGKPWVWWDYVTDFQIRCPMKEKKYNKDCAESVIKSLGIDSRKIDKCMGDPDADLDNPVLKEEQDAQVGKGTRGDVTILPTLVVNNRQYRGKLEKSAVLKALCSGFEESTEPAICLSTDMETNECLDNNGGCWQDKSANITACKDTFRGKVCVCPIVDGVRFKGDGYSHCEPSGPGRCTINNGGCWHEERDGHAFSACVDKDSVKCECPPGFKGDGVKKCEDINECKEKKACQCPECSCKNTWGSYECSCSGDLLYMRDHDTCISKTGSQVKSAWAAVWLIMLSLGLAAAGAYLVYKYRLRQYMDSEIRAIMAQYMPLDSQPEVPNHTNDERA
expression_or_secretion [8]: decreases
